# Assay results as given in US12123009B2, “Methods and compositions for PPO herbicide tolerance in plants” (Monsanto Technology LLC, priority 2015, dated 2024).
# B1: H_N90: microbial HemG protoporphyrinogen oxidase, SEQ ID NO:1 (SEQ ID NO:11 lacking start methionine; variants 18, 19) (protein, listed as Enterobacter cloacae)
# chain: MKALVLYSTRDGQTHAIASYIASCMKEKAECDVIDLTHGEHVNLTQYDQVLIGASIRYGHFNAVLDKFIKRNVDQLNNMPSAFFCVNLTARKPEKRTPQTNPYVRKFLLATPWQPALCGVFAGALRYPRYRWIDKVMIQLIMRMTGGETDTSKEVEYTDWEQVKKFAEDFAKLSYKKAL
# Columns and labels:
# Assay type in all cases: in vivo
# [1] = test system: soybean, non-transgenic or expressing H_N10 (SEQ ID NO: 4); test: Green house S-3100 efficacy screen of R1 soybean
# Description: Single-copy transgenic R1 soybean plants in the greenhouse were sprayed with one of three herbicide application rates: Treatment 1 was 5 grams ai/ha S-3100 applied at V4 followed by (fb) R1; Treatment 2 was 10 grams ai/ha S-3100 applied at V4 fb R1; Treatment 3 was 30 grams ai/ha S-3100 applied at V4 fb R1. Crop Injury Percent at V2 (CIPV2) ratings were assessed ten days after treatment. Non-transgenic plants had average injury ratings of 89% to 100% and were not available for rating at the R1 growth stage.
# [2] = test system: transgenic maize expressing HemG PPO enzymes; test: Transgenic Maize Herbicide Tolerance II (R0 plants sprayed); conditions: 40 grams/ha; for Average Injury: V5, 7 days
# Source text: (§1) H_N60 (SEQ ID NO:3). […] These five constructs had the same promoter plus leader plus intron combination, with two different targeting peptide (TP) sequences, and the same 3′UTR sequence. Leaf samples were taken from the R0 plants and analyzed by PCR to determine the transgene copy number. Single copy plants for up to 12 unique events per construct were transplanted to pots, selfed and outcrossed to generate R1 and F1 seed, respectively, for future testing. Multi-copy plants and extra single copy plants were sprayed with 40 grams/ha 5-3100 at approximately the V5 growth stage and injury ratings were taken 7 days after treatment. The average percent (%) injury for all plants expressing each PPO enzyme and the number of plants that were deemed highly tolerant (less than 10% injury) was noted, where each plant is a unique single or multi-copy transformant.
# [3] = test system: soybean (A3555), non-transgenic or expressing H_N10 (SEQ ID NO: 4); test: R0 soybean sprayed with S-3100; conditions: 5 g/ha, V3, 8 days
# Description: In soybean, excised embryos (A3555) were transformed with the transformation constructs 1 and 11 using A. tumefaciens and standard methods known in the art. […] Regenerated R0 transgenic plantlets were grown in the greenhouse. […] The herbicide was sprayed at the V3 developmental stage with three fully developed trifoliate leaves and injury ratings were assessed 8 days after treatment. The percentage of plants that were deemed highly tolerant (15% or less injury) was noted.
# The herbicide was sprayed at the V3 developmental stage with three fully developed trifoliate leaves and injury ratings taken 8 days after treatment. The percentage of plants that were deemed highly tolerant (25% or less injury) was noted.
# [4] = test system: leaf discs of transgenic maize expressing H_N10 (SEQ ID NO: 4); test: Leaf disc assay, maize; conditions: H_N10, construct 6; 1 micromolar
# Description: A leaf-disc assay was employed for rapid and minimally damaging assessment of herbicide tolerance in transgenic plants expressing a recombinant PPO enzyme. Leaf tissue was sampled from the youngest fully-green leaf of corn and soybean plants. Five 4-mm diameter leaf discs were cut from the leaf samples using a disposable biopsy punch with a plunger (Integra® Miltex®, Inc., York. Pennsylvania) and the leaf discs were placed into one ml of incubation solution (1 mM MES, pH 6.5, 1% w/v sucrose, 1% (v/v) acetone) in 24-well polystyrene plates with lids. For herbicide tolerance analysis, S-3100 was added to the incubation solution to a final concentration of 1 micromolar. Vacuum infiltration was applied and plates of leaf discs were incubated in continuous darkness for one day at room temperature (23-24° C.) followed by one (soybean) or two (corn) days continuous light incubation under overhead fluorescent and incandescent bulbs (520 uE) at 26-27° C. Leaf disc injury was then scored visually on a scale from 0 (lowest injury) to 4 (highest injury), with lower scores indicating better tolerance to the PPO herbicide.
# [5] = test system: R0 soybean plants; test: R0 transgenic soybean herbicide tolerance at eleven weeks; conditions: R0 plants sprayed with S-3100 at eleven weeks, rated seven days after treatment
# Description: The plantlets in the non-sprayed containers corresponding to constructs having a score of 2 were transplanted at approximately 7 weeks post transformation and grown as R0 plants using standard methods known in the art. Plantlets corresponding to non-tolerant scores of 0 and 1 were also grown to serve as negative controls. The R0 plants were grown in a greenhouse under long-day nursery conditions (18 hr light at 80° F. then 6 hr dark at 74° F.) for approximately four weeks. At eleven weeks, the R0 plants were sprayed with two passes of the same herbicide solution (0.3 g of 5-3100) described above. Herbicide injury ratings were collected seven days after treatment.
# The results of the herbicide tolerance application at eleven weeks to the R0 plants confirmed the low percent injury rating scores observed in the high-throughput screen at five weeks. Any injury rating of 30% or above was equivalent to non-transgenic soybean injury ratings. A few of the constructs stood out as providing very good tolerance to the herbicide application. […] Data are provided in Table 10, where n.d. indicates the analysis was not conducted.
# [6] = test system: transgenic maize plants; test: R0 transgenic maize 40 g/ha S-3100 spray test
# Source text: as §1
# [7] = H_N10 (SEQ ID NO: 4), construct 11
# [8] = 40 grams/ha S-3100 at V5, 7 days after treatment, R0 plants
molecule,measurement,setting,value
"CCOC(=O)COc1ncccc1Oc1cc(-n2c(=O)cc(C(F)(F)F)n(C)c2=O)c(F)cc1Cl [S-3100, ethyl [3-2-chloro-4-fluoro-5-(1-methyl-6-trifluoromethyl-2,4-dioxo-1,2,3,4-tetrahydropyrimidin-3-yl)phenoxy]-2-pyridyloxylacetate]",% Injury R1 stage,"[1]; H_N10, construct 1, 5 g/ha",3%
same,% Injury V4 stage,"[1]; H_N10, construct 1, 5 g/ha",4.2%
same,% Injury R1 stage,"[1]; H_N10, construct 1, 10 g/ha",6.5%
same,% Injury V4 stage,"[1]; H_N10, construct 1, 10 g/ha",7.8%
same,% Injury R1 stage,"[1]; H_N10, construct 1, 30 g/ha",15.7%
same,% Injury V4 stage,"[1]; H_N10, construct 1, 30 g/ha",9.4%
same,% Injury V4 stage,"[1]; Nontransgenic, 5 g/ha",89%
same,% Injury V4 stage,"[1]; Nontransgenic, 10 g/ha",98%
same,% Injury V4 stage,"[1]; Nontransgenic, 30 g/ha",100%
same,Average Injury,"[2]; H_N10 (SEQ ID NO 4), construct 6",39.5%
same,Highly Tolerant (less than 10% injury),"[2]; H_N10 (SEQ ID NO 4), construct 6, of 139 plants",31 plants
same,Average Injury,"[2]; H_N40 (SEQ ID NO 6), construct 23",47.0%
same,Highly Tolerant (less than 10% injury),"[2]; H_N40 (SEQ ID NO 6), construct 23, of 98 plants",53 plants
same,Average Injury,"[2]; H_N60 (SEQ ID NO 3), construct 20",55.8%
same,Highly Tolerant (less than 10% injury),"[2]; H_N60 (SEQ ID NO 3), construct 20, of 86 plants",19 plants
same,Average Injury,"[2]; H_N90 (SEQ ID NO 1), construct 21",31.4%
same,Highly Tolerant (less than 10% injury),"[2]; H_N90 (SEQ ID NO 1), construct 21, of 99 plants",44 plants
same,Average Injury,"[2]; H_N110 (SEQ ID NO 10), construct 22",43.0%
same,Highly Tolerant (less than 10% injury),"[2]; H_N110 (SEQ ID NO 10), construct 22, of 94 plants",0 plants
same,average injury rating,[3]; [7],47%
same,highly tolerant plants (25% or less injury),[3]; [7],30%
same,average injury rating,[3]; non-transgenic,60%
same,highly tolerant plants (25% or less injury),[3]; non-transgenic,no highly tolerant plants
same,average leaf disc score (0 lowest to 4 highest injury),[4],0.4
B1,percent injury score,[5]; TP1,3%
same,percent injury score,[5]; TP9,30%
same,percent injury score,[5]; TP10,30%
same,percent injury score,[5]; TP11,30%
same,percent injury score,[5]; TP12,30%
same,percent injury score,[5]; TP13,15%
same,percent injury score,[5]; TP14,25%
same,percent injury score,[5]; TP15,35%
same,percent injury score,[5]; TP16,35%
same,percent injury score,[5]; TP17,15%
same,percent injury score,[5]; TP18,30%
same,percent injury score,[5]; TP20,5%
same,percent injury score,[5]; TP21,25%
same,percent injury score,[5]; TP22,30%
same,percent injury score,[5]; TP23,30%
same,percent injury score,[5]; TP26,40%
same,percent injury score,[5]; TP27,35%
same,percent injury score,[5]; TP28,30%
same,percent injury score,[5]; TP32,50%
same,percent injury score,[5]; TP33,25%
same,percent injury score,[5]; TP34,35%
same,percent injury score,[5]; TP35,15%
same,percent injury score,[5]; TP36,15%
same,Average Injury,[6]; [8],31.4%
same,Highly Tolerant (number of plants with less than 10% injury),[6]; [8],44
same,injury rates when expressed in transgenic plants (crop tolerance to a PPO herbicide),[6]; R0 transgenic maize data,reduced injury rates
